Assay [1] has as its target T1, human soluble CD4 (sCD4) (human, UniProt P01730). The assay is described as follows: competition ELISA.
The target in assay [2] is T1, human soluble CD4 (sCD4).
Assay [3] deals with T1, human soluble CD4 (sCD4). The source holds these as a separate data set.
Assay [4] has as its target T1, human soluble CD4 (sCD4). Description: SPR.
Assay [5] deals with T1, human soluble CD4 (sCD4). Description: SPR. The source holds these as a separate data set.

A word on the Kd: it is the equilibrium constant for the complex coming apart. Higher therefore signals a looser complex.

Changes are numbered by the printed parent chain. Numbers in names are those of the source. Where two headings read alike, the source gives them in different places.

B1: m36 (antibody, V domains shown)
VH: QVQLVQSGGGLVQPGGSLRLSCAASAFDFSDYEMSWVRQAPGKGLEWIGEINDSGNTIYNPSLKSRVTISRDNSKNTLYLQMNTLRAEDTAIYYCAIYGGNSGGEYWGQGTLVTVSS
With B1, in the assay with human soluble CD4 (sCD4) [1], the binding result was “no binding”.

B2: SQTLH (clone 33) (antibody, V domains shown)
VH: QVQLQQSGPEVVKPGASVKMSCKASGYTFTSQTLHWVRQKPGQGLDWIGYINPYNDGTDYDEKFKGKATLTSDTSTSTAYMELSSLRSEDTAVYYCAREKDNYATGAWFAYWGQGTLVTVSS
VL: DIVMTQSPDSLAVSLGERVTMNCKSSQSLLYSTNQKNYLAWYQQKPGQSPKLLIYWASTRESGVPDRFSGSGSGTDFTLTISSVQAEDVAVYYCQQYYSYRTFGGGTKLEIK
Regarding B2, the Kd with human soluble CD4 (sCD4) [2] and with human soluble CD4 (sCD4) [3] was 0.012 nM throughout.

B3: SQTIH (clone 23) (antibody, V domains shown)
VH: B2 VH with L34I
VL: B2 VL
With B3, the Kd with human soluble CD4 (sCD4) [2] and with human soluble CD4 (sCD4) [3] was 0.0192 nM in each case.

B4: E95A (antibody, V domains shown)
VH: B2 VH with Q32Y, T33V, L34I, E99A
VL: B2 VL
Molecule B4 yielded a Kd with human soluble CD4 (sCD4) [4] of 7.7 nM.

B5: ML1 (CDR-H1 SRVLS) (antibody, V domains shown)
VH: B2 VH with Q32R, T33V, H35S
VL: B2 VL
Regarding B5, the values for the Kd in the assay with human soluble CD4 (sCD4) [2] and in the assay with human soluble CD4 (sCD4) [5] were 2.13 nM and 2.14 nM, respectively.

B6: M3 (CDR-H1 EYTIH) (antibody, V domains shown)
VH: B2 VH with S31E, Q32Y, L34I
VL: B2 VL
Turning to B6, the Kd with human soluble CD4 (sCD4) [4] came out at 0.033 nM.

B7: ML28 (antibody, V domains shown)
VH: B2 VH with Q32Y, T33V, L34I, T105V, G106P, A107G
VL: B2 VL
As for B7, the Kd worked out at 1.41 nM with human soluble CD4 (sCD4) [2] and 1.76 nM with human soluble CD4 (sCD4) [5].

B8: M28 (CDR-H1 DYTFH) (antibody, V domains shown)
VH: B2 VH with S31D, Q32Y, L34F
VL: B2 VL
Consider B8, for which the Kd with human soluble CD4 (sCD4) [4] came to 0.014 nM; with human soluble CD4 (sCD4) [2], 0.0132 nM; in the assay with human soluble CD4 (sCD4) [3] it was 0.0132 nM.

B9: M22 (CDR-H1 DYTIH) (antibody, V domains shown)
VH: B2 VH with S31D, Q32Y, L34I
VL: B2 VL
Consider B9, for which the results for the Kd in the assay with human soluble CD4 (sCD4) [4], with human soluble CD4 (sCD4) [2] and with human soluble CD4 (sCD4) [3] were 0.047 nM, 0.0346 nM and 0.0346 nM, respectively.

B10: GQTLH (clone 25, 37) (antibody, V domains shown)
VH: B2 VH with S31G
VL: B2 VL
With B10, the Kd with human soluble CD4 (sCD4) [3] was 0.0173 nM.

B11: NQTLH (clone 26, 36) (antibody, V domains shown)
VH: B2 VH with S31N
VL: B2 VL
B11 returned a Kd with human soluble CD4 (sCD4) [3] of 0.0406 nM.

B12: DQTLH (clone 27, 31) (antibody, V domains shown)
VH: B2 VH with S31D
VL: B2 VL
Consider B12, for which the Kd with human soluble CD4 (sCD4) [2] and with human soluble CD4 (sCD4) [3] was 0.015 nM throughout.

B13: AQTLH (clone 30) (antibody, V domains shown)
VH: B2 VH with S31A
VL: B2 VL
In the case of B13, the Kd with human soluble CD4 (sCD4) [2] and in the assay with human soluble CD4 (sCD4) [3] was 0.0107 nM throughout.

B14: EYTFH (clone 40) (antibody, V domains shown)
VH: B2 VH with S31E, Q32Y, L34F
VL: B2 VL
With B14, the Kd with human soluble CD4 (sCD4) [2] and in the assay with human soluble CD4 (sCD4) [3] was 0.0112 nM each time.

B15: ML26 (antibody, V domains shown)
VH: B2 VH with Q32Y, T33V, L34I, E99Q, K100A, D101A
VL: B2 VL
For the molecule B15, the Kd turned out to be 3.64 nM in the assay with human soluble CD4 (sCD4) [2] and 4.14 nM in the assay with human soluble CD4 (sCD4) [5].

B16: ML11 (antibody, V domains shown)
VH: B2 VH with Q32Y, T33V, L34I, A97V, N102S, Y103F
VL: B2 VL
For the molecule B16, the Kd with human soluble CD4 (sCD4) [2] amounted to 2.47 nM; in the assay with human soluble CD4 (sCD4) [5], 6.72 nM.

B17: M24 (CDR-H1 EQTLH) (antibody, V domains shown)
VH: B2 VH with S31E
VL: B2 VL
As to B17, the Kd is 0.018 nM with human soluble CD4 (sCD4) [4], 0.0097 nM in the assay with human soluble CD4 (sCD4) [2], 0.0097 nM in the assay with human soluble CD4 (sCD4) [3] and 0.0042 nM with human soluble CD4 (sCD4) [5].

B18: ML29 (antibody, V domains shown)
VH: B2 VH with Q32Y, T33V, L34I, N102S, Y103L, A104T
VL: B2 VL
For the molecule B18, the dissociation constant (Kd) with human soluble CD4 (sCD4) [2] came to 2.23 nM; in the assay with human soluble CD4 (sCD4) [5], 4.83 nM.

B19: iMabΔm36 (iMab arm) (antibody)
chain 1: MEWSGVFMFLLSVTAGVHSQVQLQQSGPEVVKPGASVKMSCKASGYTFTSYVIHWVRQKPGQGLDWIGYINPYNDGTDYDEKFKGKATLTSDTSTSTAYMELSSLRSEDTAVYYCARAKDNAATGAWFAYWGQGTLVTVSSASTKGPSVFPLAPSSKSTSGGTAALGCLVKDYFPEPVTVSWNSGALTSGVHTFPAVLQSSGLYSLSSVVTVPSSSLGTQTYICNVNHKPSNTKVDKKVEPKSCDKTHTCPPCPAPEFEGGPSVFLFPPKPKDTLMISRTPEVTCVVVDVSHEDPEVKFNWYVDGVEVHNAKTKPREEQYNSTYRVVSVLTVLHQDWLNGKEYKCKVSNKALPASIEKTISKAKGQPREPQVYTLPPSRDELTKNQVSLTCLVKGFYPSDIAVEWESNGQPENNYKTTPPVLDSDGSFFLYSKLTVDKSRWQQGNVFSCSVLHEALHSHYTQKSLSLSPGKLEGGGGSGGGGSGGGGSGQVQLVQSGGGLVQPGGSLRLSCAASAFDFSDYEMSWVRQAPGKGLEWIGEINDSGNTIYNPSLKSRVTISRDNSKNTLYLQMNTLRAEDTAIYYCAIYGGNSGGEYWGQGTLVTVSS
chain 2: not shown
On to B19, for which the binding result in the assay with human soluble CD4 (sCD4) [1] is recorded as “no binding”.

(Values after patent US8637024 (dated 2014).)
